± gives the uncertainty stated by the source.
Test: protein stability index of a GFP-peptide fusion (yeast GPS) (PSI 1-4); higher = more stable; sorted into four equal gates, so the index is relative within each strain
Outline: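 The protein stability index combines read frequencies across sorting gates, each weighted by its gate number and then summed. To obtain those frequencies, a pooled yeast library of GFP fusions to tiled 17-residue yeast protein peptides, on a plasmid also expressing Cherry, was grown to mid-log phase in leucine-free medium. The cells were sorted into four equal gates by GFP/Cherry ratio before plasmid amplification by PCR and Illumina sequencing.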

MPPKEDWEKYKAPLEDD [RPT1]
protein stability index (doa10∆): 3.21 ± 0.12 | protein stability index (pdr5∆): 3.29 ± 0.21 | protein stability index (san1∆): 3.38 ± 0.069 | protein stability index (ubr1∆): 3.27 ± 0.19

LQNDLIHKIQNDNNLKK [RPN5]
protein stability index (doa10∆): 2.96 ± 0.081 | protein stability index (pdr5∆): 3.24 ± 0.068 | protein stability index (san1∆): 3.11 ± 0.054 | protein stability index (ubr1∆): 3.12 ± 0.065

QDVQRTCILHGPVAAQF [FAS1]
protein stability index (doa10∆): 2.12 ± 0.078 | protein stability index (pdr5∆): 2.54 ± 0.057 | protein stability index (san1∆): 2.02 ± 0.08 | protein stability index (ubr1∆): 2.44 ± 0.044

IKTFFTQKDSARVSPRN [YAR002W/NUP60]
protein stability index (doa10∆): 3.22 ± 0.097 | protein stability index (pdr5∆): 3.49 ± 0.1 | protein stability index (san1∆): 3.18 ± 0.086 | protein stability index (ubr1∆): 3.02 ± 0.064

FAAILVLLVLPFTDRSV [COB]
protein stability index (doa10∆): 2.88 ± 0.081 | protein stability index (pdr5∆): 1.3 ± 0.095 | protein stability index (san1∆): 1.54 ± 0.15 | protein stability index (ubr1∆): 1.13 ± 0.065

AFKKIDAITVKDVKAWA [COR1]
protein stability index (doa10∆): 2.06 ± 0.076 | protein stability index (pdr5∆): 1.91 ± 0.072 | protein stability index (san1∆): 1.83 ± 0.14 | protein stability index (ubr1∆): 1.9 ± 0.039

LRYVKQIEGPFLIIVPK [ISW2]
protein stability index (doa10∆): 2.15 ± 0.081 | protein stability index (pdr5∆): 2.3 ± 0.059 | protein stability index (san1∆): 2.29 ± 0.065 | protein stability index (ubr1∆): 2.34 ± 0.045

SIVNICDIQEEQVDITA [PUP1]
protein stability index (doa10∆): 2.83 ± 0.15 | protein stability index (pdr5∆): 2.91 ± 0.16 | protein stability index (san1∆): 3.31 ± 0.12 | protein stability index (ubr1∆): 2.74 ± 0.11

EIAFHLTLIFYDVLHDV [YML103C/NUP188]
protein stability index (doa10∆): 1.26 ± 0.072 | protein stability index (pdr5∆): 1.47 ± 0.055 | protein stability index (san1∆): 1.63 ± 0.17 | protein stability index (ubr1∆): 1.99 ± 0.086

TIGKRRTTTNTTAEPKA [TAF14]
protein stability index (doa10∆): 3.07 ± 0.064 | protein stability index (pdr5∆): 3.26 ± 0.042 | protein stability index (san1∆): 3.15 ± 0.045 | protein stability index (ubr1∆): 3.2 ± 0.05

SEEERKSSPISNEAAKP [YOR098C/NUP1]
protein stability index (doa10∆): 2.94 ± 0.099 | protein stability index (pdr5∆): 2.97 ± 0.099 | protein stability index (san1∆): 3.07 ± 0.069 | protein stability index (ubr1∆): 3.21 ± 0.071

EVYKAEKDAVSVFGFRT [RPS24A]
protein stability index (doa10∆): 3.24 ± 0.15 | protein stability index (pdr5∆): 3.12 ± 0.086 | protein stability index (san1∆): 3.36 ± 0.07 | protein stability index (ubr1∆): 3.31 ± 0.13

PLVQADLYEQIGIDPPR [RPT3]
protein stability index (doa10∆): 2.48 ± 0.074 | protein stability index (pdr5∆): 2.83 ± 0.1 | protein stability index (san1∆): 2.63 ± 0.066 | protein stability index (ubr1∆): 2.83 ± 0.081

IFSLLTGYPDEPPAGVA [CYT1]
protein stability index (doa10∆): 2.87 ± 0.18 | protein stability index (pdr5∆): 2.52 ± 0.14 | protein stability index (san1∆): 2.4 ± 0.13 | protein stability index (ubr1∆): 2.54 ± 0.09

LLQLKYFSNKTSTGIIR [POP5]
protein stability index (doa10∆): 2.46 ± 0.19 | protein stability index (pdr5∆): 1.84 ± 0.13 | protein stability index (san1∆): 1.35 ± 0.29 | protein stability index (ubr1∆): 1.98 ± 0.062

KNYSRPSTAIHTSPHQP [SIR4]
protein stability index (doa10∆): 2.86 ± 0.045 | protein stability index (pdr5∆): 2.72 ± 0.044 | protein stability index (san1∆): 2.65 ± 0.053 | protein stability index (ubr1∆): 2.72 ± 0.044

LNLINAKLWFYIYLSHE [RPN3]
protein stability index (doa10∆): 1.43 ± 0.059 | protein stability index (pdr5∆): 1.23 ± 0.056 | protein stability index (san1∆): 1.28 ± 0.095 | protein stability index (ubr1∆): 1.44 ± 0.065

NDVQGIDDVQTIKVVKR [RPP1]
protein stability index (doa10∆): 3.08 ± 0.064 | protein stability index (pdr5∆): 2.62 ± 0.066 | protein stability index (san1∆): 2.69 ± 0.053 | protein stability index (ubr1∆): 2.81 ± 0.056

MEGNAQPVNFNRSWDHA [RPO31]
protein stability index (doa10∆): 2.22 ± 0.11 | protein stability index (pdr5∆): 2.31 ± 0.071 | protein stability index (san1∆): 2.39 ± 0.13 | protein stability index (ubr1∆): 2.35 ± 0.067

DLESMGLTQLYKKSTEN [MED7]
protein stability index (doa10∆): 2.9 ± 0.071 | protein stability index (pdr5∆): 3.13 ± 0.067 | protein stability index (san1∆): 2.81 ± 0.067 | protein stability index (ubr1∆): 2.9 ± 0.047

LKENTYVMERPKNVPTS [YDL116W/NUP84]
protein stability index (doa10∆): 1.81 ± 0.1 | protein stability index (pdr5∆): 2.13 ± 0.12 | protein stability index (san1∆): 2.79 ± 0.15 | protein stability index (ubr1∆): 2.96 ± 0.093

KDQDSQIELSCNERVPL [SRP72]
protein stability index (doa10∆): 3.08 ± 0.08 | protein stability index (pdr5∆): 3.12 ± 0.097 | protein stability index (san1∆): 2.83 ± 0.056 | protein stability index (ubr1∆): 3.01 ± 0.059

RNNHNSNTSTSKMLDAA [SNF12]
protein stability index (doa10∆): 3.01 ± 0.058 | protein stability index (pdr5∆): 3.04 ± 0.044 | protein stability index (san1∆): 3.22 ± 0.092 | protein stability index (ubr1∆): 3.01 ± 0.048

QTQEFFLSSFDDVLQTI [YJL039C/NUP192]
protein stability index (doa10∆): 2.65 ± 0.046 | protein stability index (pdr5∆): 2.27 ± 0.048 | protein stability index (san1∆): 2.32 ± 0.047 | protein stability index (ubr1∆): 2.51 ± 0.034

LALAETLKLRARQRGKL [SRP68]
protein stability index (pdr5∆): 2.64 ± 0.21 | protein stability index (san1∆): 2.25 ± 0.26 | protein stability index (ubr1∆): 2.97 ± 0.098

GFANSLTFILGQLLSVK [YML031W/NDC1]
protein stability index (doa10∆): 1.13 ± 0.13 | protein stability index (pdr5∆): 1.46 ± 0.18 | protein stability index (san1∆): 1.2 ± 0.22 | protein stability index (ubr1∆): 1.26 ± 0.12

FTFGQSTSENKISEGSA [YOR098C/NUP1]
protein stability index (doa10∆): 3.71 ± 0.16 | protein stability index (pdr5∆): 3.35 ± 0.084 | protein stability index (san1∆): 2.86 ± 0.12 | protein stability index (ubr1∆): 3.37 ± 0.11

PLLEAKKLVWPLHLIFA [SSN2]
protein stability index (doa10∆): 1.61 ± 0.083 | protein stability index (pdr5∆): 1.29 ± 0.059 | protein stability index (san1∆): 1.24 ± 0.11 | protein stability index (ubr1∆): 1.19 ± 0.06

EIKKWTAVAFWSWDIAV [HRT1]
protein stability index (doa10∆): 1.23 ± 0.076 | protein stability index (pdr5∆): 1.7 ± 0.073 | protein stability index (san1∆): 1.65 ± 0.11 | protein stability index (ubr1∆): 1.36 ± 0.044

VGVIGPLHSGKTSLMDL [SNU114]
protein stability index (doa10∆): 2.97 ± 0.11 | protein stability index (pdr5∆): 2.68 ± 0.11 | protein stability index (san1∆): 3.29 ± 0.19 | protein stability index (ubr1∆): 3.13 ± 0.07

ISGDISDMQHIERLLKD [PRE4]
protein stability index (doa10∆): 2.99 ± 0.14 | protein stability index (pdr5∆): 3.1 ± 0.11 | protein stability index (san1∆): 3.13 ± 0.14 | protein stability index (ubr1∆): 2.99 ± 0.1

LNDSNVKSFKPHLLKQG [RRP42]
protein stability index (doa10∆): 2.63 ± 0.083 | protein stability index (pdr5∆): 3.25 ± 0.18 | protein stability index (san1∆): 2.58 ± 0.24 | protein stability index (ubr1∆): 2.54 ± 0.13

MAKLNECPLDPGGYFIV [RET1]
protein stability index (doa10∆): 2.87 ± 0.11 | protein stability index (pdr5∆): 3.28 ± 0.091 | protein stability index (san1∆): 2.83 ± 0.086 | protein stability index (ubr1∆): 3.23 ± 0.099

ILRKPGKDCKLQNLQRI [RRI2]
protein stability index (doa10∆): 3.12 ± 0.094 | protein stability index (pdr5∆): 3.47 ± 0.14 | protein stability index (san1∆): 3.14 ± 0.096 | protein stability index (ubr1∆): 3.07 ± 0.13

RKDLRDKLICSIDPPGC [DIS3]
protein stability index (doa10∆): 2.96 ± 0.066 | protein stability index (pdr5∆): 2.91 ± 0.047 | protein stability index (san1∆): 2.67 ± 0.055 | protein stability index (ubr1∆): 3.03 ± 0.051

QTGTKPVLKKKAAFLGS [COR1]
protein stability index (doa10∆): 2.99 ± 0.064 | protein stability index (pdr5∆): 3.14 ± 0.085 | protein stability index (san1∆): 3.04 ± 0.076 | protein stability index (ubr1∆): 3.16 ± 0.058

VGRLASVVAKQLLNGQK [RPL16A]
protein stability index (pdr5∆): 1.89 ± 0.3 | protein stability index (san1∆): 2.99 ± 0.13 | protein stability index (ubr1∆): 1.67 ± 0.2

KAYVRLTADYDALDIAN [RPL25]
protein stability index (doa10∆): 2.94 ± 0.14 | protein stability index (pdr5∆): 3.04 ± 0.15 | protein stability index (san1∆): 3.17 ± 0.094 | protein stability index (ubr1∆): 3.52 ± 0.091

VILGDANSSTIRVTNSF [RPN8]
protein stability index (doa10∆): 3.01 ± 0.092 | protein stability index (pdr5∆): 2.94 ± 0.072 | protein stability index (san1∆): 2.89 ± 0.066 | protein stability index (ubr1∆): 3.06 ± 0.052

RVVYLKHLEDNTLLISG [RPL6A]
protein stability index (doa10∆): 2.63 ± 0.11 | protein stability index (pdr5∆): 2.62 ± 0.093 | protein stability index (san1∆): 1.81 ± 0.17 | protein stability index (ubr1∆): 2.23 ± 0.059

LKRRQVIEQCYLKFIPL [SRB8]
protein stability index (doa10∆): 1.91 ± 0.045 | protein stability index (pdr5∆): 1.98 ± 0.048 | protein stability index (san1∆): 1.52 ± 0.082 | protein stability index (ubr1∆): 1.83 ± 0.032

NLYTPKAEMPPEHLRKI [PRP8]
protein stability index (doa10∆): 2.53 ± 0.072 | protein stability index (pdr5∆): 2.38 ± 0.062 | protein stability index (san1∆): 2.78 ± 0.073 | protein stability index (ubr1∆): 2.12 ± 0.053

SSRFKHRQEIFKDSPMD [GAL11]
protein stability index (doa10∆): 2.71 ± 0.078 | protein stability index (pdr5∆): 3.11 ± 0.066 | protein stability index (san1∆): 3.03 ± 0.059 | protein stability index (ubr1∆): 3.01 ± 0.076

RLLPINVNKKALGQDTE [MED11]
protein stability index (doa10∆): 2.84 ± 0.061 | protein stability index (pdr5∆): 2.96 ± 0.062 | protein stability index (san1∆): 2.89 ± 0.035 | protein stability index (ubr1∆): 3.16 ± 0.052

FSFGTSQPNNTPSFSFG [YLR335W/NUP2]
protein stability index (doa10∆): 2.81 ± 0.048 | protein stability index (pdr5∆): 2.73 ± 0.047 | protein stability index (san1∆): 2.88 ± 0.053 | protein stability index (ubr1∆): 2.59 ± 0.037

LSLEEVEGHLFEIIDEA [FAS1]
protein stability index (doa10∆): 3.01 ± 0.11 | protein stability index (pdr5∆): 3.29 ± 0.1 | protein stability index (san1∆): 3.09 ± 0.063 | protein stability index (ubr1∆): 3.07 ± 0.069

GDIKPEFSPRLHNIWSN [YML103C/NUP188]
protein stability index (doa10∆): 3.22 ± 0.14 | protein stability index (pdr5∆): 2.98 ± 0.091 | protein stability index (san1∆): 3.32 ± 0.11 | protein stability index (ubr1∆): 3.51 ± 0.11

TISQALLNAADRDALSG [PUP3]
protein stability index (doa10∆): 2.82 ± 0.12 | protein stability index (pdr5∆): 2.11 ± 0.097 | protein stability index (san1∆): 1.95 ± 0.17 | protein stability index (ubr1∆): 1.95 ± 0.068

ALKTSIQHVGMINGRKL [FAS1]
protein stability index (doa10∆): 3.21 ± 0.12 | protein stability index (pdr5∆): 3.21 ± 0.1 | protein stability index (san1∆): 3.25 ± 0.067 | protein stability index (ubr1∆): 3.19 ± 0.083

EELDITPLFPIDRNSTI [IRR1]
protein stability index (doa10∆): 2.48 ± 0.11 | protein stability index (pdr5∆): 2.9 ± 0.14 | protein stability index (san1∆): 2.9 ± 0.095 | protein stability index (ubr1∆): 2.8 ± 0.1

REQASKSKKSWLNRLNN [YMR153W/NUP53]
protein stability index (doa10∆): 2.31 ± 0.11 | protein stability index (pdr5∆): 2.45 ± 0.099 | protein stability index (san1∆): 1.62 ± 0.15 | protein stability index (ubr1∆): 2.92 ± 0.063
